Assay results as given in patent US9649378B2, “Cancer methods” (priority 2010, dated 2017).
Entries after “also recorded” stand apart in the source; their conditions may differ.

Assays:
[1] = tested on: SKOV-3 cells; assay: in vitro growth assay (MTT-based) with rOPCML added to growth media; conditions: 0.5-10 μM for 48 h or 2 μM for 96 h
Protocol: (§1) (A) SKOV-3 cells were subjected to a 48 h in vitro growth assay with varying concentrations of OPCML administration. (B) A 96 h in vitro SKOV-3 growth assay with 2 μM rOPCML administered to growth media. Time points were collected every 24 h and normalised to control cells treated with vehicle only. Cell viability was quantified using MTT and measured at 570 nm. (C) Upper panel—OSE-C2 and SKOV-3 cells were subjected to a 48 h in vitro growth assay with varying OPCML concentrations (0.5, 1, 2, 5 and 10 μM); lower panel—normal ovarian surface epithelial cells (OSE-C2) and a panel of ovarian (SKOV-3, IGROV, OVISE, OVCAR-5, A2780, PEA1 and PEA2) and […] breast cancer cells were subjected to an in vitro growth assay with 10 μm OPCML. Time points were collected at 24 h and 48 h and cell growth was monitored to vehicle only controls. Cell viability was quantified in all experiments using an MTT-based assay and measured at 570 nm.
(B) a 96 h in vitro SKOV-3 growth assay with 2 μM rOPCML administered to growth media. Time points were collected every 24 h and normalised to control cells treated with vehicle only. […] Cell viability was quantified in all experiments using an MU-based assay and measured at 570 nm. […] Caspase cleavage was quantified using the GaspaseGlo kit and normalised to cell viability. […]

[2] = tested on: normal ovarian surface epithelial cells (OSE-C2); assay: in vitro growth assay (MTT-based) with rOPCML; format: cell-based; conditions: OSE-C2, OPCML expressing
Protocol: as §1
(B) a 96 h in vitro SKOV-3 growth assay with 2 μM rOPCML administered to growth media. Time points were collected every 24 h and normalised to control cells treated with vehicle only. (C) Normal ovarian surface epithelial cells (OSE-C2) and a panel of ovarian (SKOV-3, IGROV, OVISE, OVCAR-5, A2780, PEA1 and PEA2), […] breast cancer cells and non-adherant (H69, H501 small-cell) and adherent (A549 carcinoma, HCC95 non-SSLC squamous) lung cancer cells were subjected to an in vitro growth assay with 10 μM of rOPCML. Time points were collected at 24 and 48 h and cell growth was normalised to vehicle only controls. Cell viability was quantified in all experiments using an MU-based assay and measured at 570 nm. Caspase cleavage-based apoptosis assays using (D) A2780 and (E) SKOV-3 were undertaken with administration of rOPCML (2, 5 and 10 μM) over 24 h. Caspase cleavage was quantified using the GaspaseGlo kit and normalised to cell viability. […]

[3] = tested on: ovarian cancer cell lines (SKOV-3, IGROV, OVISE, OVCAR-5, A2780, PEA1 and PEA2); assay: in vitro growth assay (MTT-based) with rOPCML, ovarian panel; format: cell-based; conditions: for growth of ovarian and breast cancer cell lines: 10 μM, 24 h and 48 h, versus vehicle only; for ovarian cancer cell lines growth-inhibited / killed, of lines tested: in vitro
Protocol: (§2) We have tested 0.5, 1, 2, 5 and 10 μM of recombinant […] human OPCML in vitro, and there is a linear dose response which has not yet peaked. […] The physician skilled in the art will be able to identify suitable doses based upon this information and their skill in the art.
as §1
(§3) (B) a 96 h in vitro SKOV-3 growth assay with 2 μM rOPCML administered to growth media. Time points were collected every 24 h and normalised to control cells treated with vehicle only. (C) Normal ovarian surface epithelial cells (OSE-C2) and a panel of ovarian (SKOV-3, IGROV, OVISE, OVCAR-5, A2780, PEA1 and PEA2), HER2-positive (MDA-231) and negative (BT-474) breast cancer cells and non-adherant (H69, H501 small-cell) and adherent (A549 carcinoma, HCC95 non-SSLC squamous) lung cancer cells were subjected to an in vitro growth assay with 10 μM of rOPCML. Time points were collected at 24 and 48 h and cell growth was normalised to vehicle only controls. Cell viability was quantified in all experiments using an MU-based assay and measured at 570 nm. Caspase cleavage-based apoptosis assays using (D) A2780 and (E) SKOV-3 were undertaken with administration of rOPCML (2, 5 and 10 μM) over 24 h. Caspase cleavage was quantified using the GaspaseGlo kit and normalised to cell viability.

[4] = tested on: HER2-positive (MDA-231) and negative (BT-474) breast cancer cells; assay: in vitro growth assay (MTT-based) with rOPCML, breast lines; format: cell-based; conditions: for breast cancer cell lines growth-inhibited / killed, of lines tested: both HER2 positive and HER2 negative
Protocol: as §2, §1
(B) a 96 h in vitro SKOV-3 growth assay with 2 μM rOPCML administered to growth media. Time points were collected every 24 h and normalised to control cells treated with vehicle only. (C) Normal ovarian surface epithelial cells (OSE-C2) and a panel of ovarian (SKOV-3, IGROV, OVISE, OVCAR-5, A2780, PEA1 and PEA2), […] breast cancer cells and non-adherant (H69, H501 small-cell) and adherent (A549 carcinoma, HCC95 non-SSLC squamous) lung cancer cells were subjected to an in vitro growth assay with 10 μM of rOPCML. Time points were collected at 24 and 48 h and cell growth was normalised to vehicle only controls. Cell viability was quantified in all experiments using an MU-based assay and measured at 570 nm. […] Caspase cleavage was quantified using the GaspaseGlo kit and normalised to cell viability.

[5] = tested on: lung cancer cells (H69, H501, A549, HCC95); assay: in vitro growth assay (MTT-based) with rOPCML, lung lines; format: cell-based; conditions: 10 μM rOPCML
Protocol: as §3

[6] = tested on: SKOV-3 and A2780 ovarian cancer cells; assay: Annexin V FACS and caspase-glo apoptosis assays with r-OPCML; format: cell-based
Protocol: as §3
Purified recombinant human OPCML domain 1-3 protein (r-OPCML) (FIG. 8) was produced from the bacterial expression vector (pHis-Trx) subcloned with domains 1-3 of OPCML, excluding the signal peptide and GPI anchor sequences (FIG. 8A).

[7] = tested on: receptor tyrosine kinase signaling in SKOV-3 and A2780 cells; assay: Western blot / IFM of RTKs and downstream signalling after exogenous OPCML; format: cell-based; conditions: for RTK levels and RTK signalling: 2 μM for 48 h, Western blot
Protocol: FIG. 9: Cellular uptake of recombinant OPCML. SKOV-3 cells were incubated with vehicle alone or vehicle including 2 μM OPCML for 24 h. Cells were then washed 3× with PBS and fixed with 4% PFA. Cells were then prepared for IFM using rabbit α-HER2 mAb and mouse α-OPCML mAb. Goat α-rabbit alexa-488 and α-mouse alexa-555 secondary antibodies were used. Slides were imaged using a Leica SP5 confocal microscope.
(A) Western Blot analysis of pHER, tHER2, tEGFR, pEGFR, tFGFR, pFGFR proteins from SKOV-3 cells untreated, treated with vehicle only or OPCML (2 μM) for 48 h. (B) Western blot analysis of pAKT, tAKT, pERK, tERK proteins from SKOV-3 cells untreated, treated with vehicle only or OPCML (2 μM) for 48 h. Protein loading was standardised by BCA-assay and β-tubulin was used as a loading control.
(A) Western Blot analysis of pHER, tHER2, tEGFR, pEGFR, tFGFR, pFGFR proteins from SKOV-3 and A2780 cells treated with vehicle only or OPCML (2 μM) for 48 h. (B) Western blot analysis of pAKT, tAKT, pERK, tERK, proteins from SKOV-3 and A2780 cells treated with vehicle only or OPCML (2 μM) for 48 h. Protein loading was standardised by BCA-assay and β-tubulin was used as a loading control.

[8] = tested on: A2780 cancer cells injected intraperitoneally; assay: intraperitoneal tumour growth assay, r-OPCML versus BSA; format: in vivo, nude mouse; conditions: A2780 model; for IP tumour growth / tumour weight: 1 ml (10 μM) IP twice weekly, 3 weeks; for IP tumour growth / tumour weight / ascites formation / volume / number of IP peritoneal deposits / peritoneal dissemination: versus BSA
Protocol: (§4) Comparison of r-OPCML and control protein (bovine serum albumen) treated A2780 and SKOV-3 cell lines. (A) Gross anatomical observation of the animals (B) Intraperitoneal tumour growth assay. Tumours were removed, weighed and photographed after 3 weeks of twice-weekly 1 mL intraperitoneal injection of 10 μM r-OPCML or BSA. Representative A2780 and SKOV-3 tumour xenografts from 4 animals are presented. A scale bar is shown. (C) mean tumour weight, (D) number of deposits and (E) volume of ascites removed per mouse from the intraperitoneal assay presented in B. Comparison is shown between tumours and ascites collected from BSA- (−) and r-OPCML-treated (+) mice. (F) Western blot analysis of recovered tumours from control (BSA) and r-OPCML treated animals recapitulates in-vitro findings.
(§5) In view of these in-vitro findings, we proceeded to determine whether r-OPCML protein had potential and relevance as an in-vivo tumour suppressor therapy. Mice with either SKOV-3 or A2780 cancer cells injected intraperitoneally (IP), after tumour establishment, received twice-weekly IP injections of either 1 ml (10 μM) bovine serum albumin (BSA) or 1 ml (10 μM) r-OPCML.

[9] = tested on: SKOV-3 cancer cells injected intraperitoneally; assay: as above; format: in vivo, nude mouse; conditions: for IP tumour growth / tumour weight: 1 ml (10 μM) IP twice weekly, 3 weeks
Protocol: as §4, §5

[10] = 0.5, 1, 2, 5 and 10 μM tested in vitro, ovarian and breast cancer cell lines
[11] = listed as recombinant full length human OPCML
[12] = SKOV-3 model, versus BSA, listed as rOPCML

B1: r-OPCML: Purified recombinant human OPCML domain 1-3 protein from E. coli, excluding signal peptide and GPI anchor sequences; SEQ ID No 5 (protein, listed as Homo sapiens)
chain: PKAMDNVTVRQGESATLRCTIDDRVTRVAWLNRSTILYAGNDKWSIDPRVIILVNTPTQYSIMIQNVDVYDEGPYTCSVQTDNHPKTSRVHLIVQVPPQIMNISSDITVNEGSSVTLLCLAIGRPEPTVTWRHLSVKEGQGFVSEDEYLEISDIKRDQSGEYECSALNDVAAPDVRKVKITVNYPPYISKAKNTGVSVGQKGILSCEASAVPMAEFQWFKEETRLATGLDGMRIENKGRMSTLTFFNVSEKDYGNYTCVATNKLGNTNASIT
- SKOV-3 cell growth in vitro [1]: specific, dose-dependent inhibition of cell growth
- SKOV-3 cell growth in vitro ([1]; listed as exogenous OPCML): inhibits SKOV-3 cell growth
- effect on normal ovarian surface epithelial cells [2]: without affecting normal ovarian surface epithelial cells
- effect on normal ovarian surface epithelial cells ([2]; listed as OPCML): sparing normal ovarian surface epithelial cells
- effect on normal ovarian surface epithelial cells ([2]; listed as rOPCML): no effect
- growth of ovarian and breast cancer cell lines ([3]; listed as Exogenous OPCML): inhibits growth
- growth of ovarian and breast cancer cell lines ([3]; listed as OPCML): inhibits growth
- growth of ovarian and breast cancer cell lines ([3]; listed as rOPCML): specifically inhibits
- concentration from which inhibition of cell growth is seen [3, 10]: ≥ 2 μm
- concentration giving frank cell death [3, 10]: 5 to 10 µM
- response of PEA2 cell line ([3]; PEA2): resistance
- ovarian cancer cell lines growth-inhibited / killed, of lines tested [3]: 6 of 7
- ovarian cancer cell lines growth-inhibited / killed, of lines tested ([3]; listed as rOPCML): 6/7
- ovarian cancer cell lines growth-inhibited / killed, of lines tested [3, 11]: 6/7
- growth of HER2+ and HER2− breast cancer cell line ([4]; 10 μM, 24 h and 48 h): profoundly inhibited
- breast cancer cell lines growth-inhibited / killed, of lines tested [4]: 2 of 2
- breast cancer cell lines growth-inhibited / killed, of lines tested [4, 11]: 2/2
- lung cancer cell lines with profoundly inhibited cell growth, of lines tested [5]: 5 of 5
- apoptosis in caspase-glo assay ([6]; 2, 5 and 10 μM over 24 h): induces apoptosis in both these cell lines in a dose dependent fashion
- early apoptosis, time post exposure ([6]; Annexin V FACS apoptosis assay, depending on cell line): 2 to 6 h
- RTK levels and RTK signalling [7]: potently downregulated
- RTK levels and RTK signalling ([7]; listed as Exogenous OPCML): inhibits RTK signaling
- RTK levels and RTK signalling ([7]; listed as exogenous OPCML): inhibits receptor tyrosine kinase signaling
- RTK levels and RTK signalling ([7]; listed as rOPCML): abrogates total RTK levels and inhibits RTK signalling
- ERK protein levels ([7]; SKOV-3, 2 μM OPCML 48 h): downregulates
- HER2 protein level ([7]; SKOV-3, 2 μM OPCML, listed as exogenous OPCML): downregulation of HER2; also recorded: downregulates
- pERK and pAKT ([7]; SKOV-3 and A2780, immunoblotting): abrogating pERK and pAKT
- AKT S473 phosphorylation ([7]; administration to cancer cells in vitro): inhibits phospho S473 AKT; also recorded: inhibits AKT s473 phosphorylation
- IP tumour growth / tumour weight [8]: significantly and profoundly suppressed
- IP tumour growth / tumour weight ([8]; listed as Recombinant OPCML): reduces tumour growth
- IP tumour growth / tumour weight ([8]; listed as rOPCML): profound inhibition
- condition of animals at 3 weeks ([8]; BSA controls deteriorating): remained well
- ascites formation / volume [8]: significantly and profoundly suppressed
- number of IP peritoneal deposits / peritoneal dissemination [8]: profoundly inhibited
- ascites formation / volume ([8]; listed as rOPCML): profound inhibition
- number of IP peritoneal deposits / peritoneal dissemination ([8]; listed as rOPCML): profound inhibition
- RTKs in recovered IP tumour (Western blotting) ([9]; SKOV3 IP tumour, r-OPCML versus BSA treated): same spectrum of RTKs inhibited
- peritoneal dissemination ([9]; SKOV3 model, versus BSA): profound inhibition
- IP tumour growth / tumour weight ([9]; SKOV-3 model, versus BSA): significantly and profoundly suppressed
- IP tumour growth / tumour weight ([9]; SKOV-3 model, versus BSA, listed as Recombinant OPCML): reduces tumour growth
- IP tumour growth / tumour weight [9, 12]: profound inhibition
- condition of animals at 3 weeks ([9]; SKOV-3 model, BSA controls deteriorating): remained well
- ascites formation / volume ([9]; SKOV-3 model, versus BSA): significantly and profoundly suppressed
- ascites formation / volume [9, 12]: profound inhibition
